Two compounds from patent US20200371091A1, “BCMA-TARGETING CHIMERIC ANTIGEN RECEPTOR, AND USES THEREOF” (Novartis AG, priority 2017, published 2020) can be followed below.

The format of experiment [1] is in vivo. As to conditions: subject 03; 1.5 g/m2 on day 17 after high-dose steroids without improvement.
Source text: This clinical trial was a phase 1 open-label study where the primary objective was safety.
The primary objective was to evaluate the safety of CART-BCMA in patients with relapsed/refractory myeloma. The primary endpoint was incidence of study-related grade 3 or higher AEs, including dose-limiting toxicities (DLTs). A DLT was defined as a serious AND unexpected AE whose relationship to study therapy could not be ruled out, occurring within 4 weeks of receiving protocol therapy.
Experiment [2] has as its target BCMA (B-cell maturation antigen) on the surface of cell lines (UniProt Q02223). The experiment is described as follows: flow cytometry on SuDHL-6 cells; Quantum Simply Cellular quantification kit.
Experiment [3] has the same target. Description: flow cytometry on HBL-1 cells; Quantum Simply Cellular quantification kit. For orientation: A flow cytometer gives signals particle by particle.

Chain of BCMA (B-cell maturation antigen) on the surface of cell lines (Q02223 whole entry): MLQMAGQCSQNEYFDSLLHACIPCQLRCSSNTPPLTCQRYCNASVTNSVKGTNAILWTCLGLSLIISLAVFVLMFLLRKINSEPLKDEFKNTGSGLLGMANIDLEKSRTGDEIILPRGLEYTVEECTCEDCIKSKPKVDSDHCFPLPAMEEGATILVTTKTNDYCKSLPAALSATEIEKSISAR

In the case of `O=P1(N(CCCl)CCCl)NCCCO1` (stereo not drawn) [cyclophosphamide], the “time to rapid neurologic improvement of PRES-like grade 4 neurotoxicity” value in experiment [1] is not above 48 hours.

Consider “PE-labeled anti-BCMA antibody (Biolegend, cat #357504)”, for which the antibody binding capacity (ABC) in experiment [2] and in experiment [3] was more than 5000 throughout.
